According to patent US7060670B1, “Stereoselective antifibrillogenic peptides and peptidomimetics thereof” (Neurochem (International) Limited, priority 1999, dated 2006):
Entries after “also recorded” stand apart in the source; their conditions may differ. Non-standard residues stand in square brackets, D forms with d. No end group written: not given here.

What was measured:
Aβ(1–40) = biological target: T1, Aβ(1–40) (Homo sapiens, UniProt P05067); assay: thioflavin T fluorescence assay for fibrillogenesis of Aβ(1–40); type: biochemical; settings: for Order Of Potency of Peptide Inhibitors, Tested at 20 μM / Order Of Potency of Peptide Inhibitors, Tested at 80 μM: rank, 1 = strongest activity, 11 = weakest, Aβ(1–40) 20 μM, by first appearance of fluorescence over 5-90 hours; for Order Of Potency of Peptide Inhibitors, Tested at 20 μM: peptide 20 μM; for Order Of Potency of Peptide Inhibitors, Tested at 80 μM: peptide 80 μM; for concentration required to give an equivalent inhibition: all-[D] versus all-[L] stereoisomer; for inhibition of [L]-Aβ (1–40) assembly/fibrillogenesis compared with the opposite stereoisomer: FIG. 2, all-[L] Aβ (1–40)
T1 construct: Aβ (1–40) 95% purity (American Peptide Company); purchased American Peptide Company, Inc 62-0-78
T1 sequence (P05067 672-711 limits assumed): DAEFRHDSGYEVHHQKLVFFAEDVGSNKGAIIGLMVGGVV
From the text: The thioflavin T fluorescence assay for fibrillogenesis is based on the principle that the fluorescent dye, thioflavin T, binds specifically to fibrillar, but not to unaggregated Aβ peptide (LeVine III, H., 1993, Protein Science 2:404–410). Upon binding, thioflavin T develops a characteristic fluorescence (Naiki, H., et al., 1996, Lab. Invest. 74: 374–383) which can be easily detected. The dye is believed to interact with the stacked cross-β pleated sheets, the common structural motif of all amyloids (LeVine III, H., 1995, Amyloid: Int. J. Exp. Clin Invest. 2:1.6). Thioflavin T is widely used to assay the effect of compounds on Aβ peptide fibrillogenesis (Bronfman, P. C., et al., 1995, Neuroscience Lett. 218:201–203). In this assay test compounds are incubated with a solution of Aβ(1–40) (20 μM) containing 10 μM thioflavin T, in 0.02M Tris/0.02M acetate/0.15M NaCl/0.005% azide/pH 7.40 at 37° C. in sealed 384 well microplates. Readings (ex 430 nm/em 485 nm) are taken at various time intervals with a microplate fluorescence reader. An increase in fluorescence signifies the appearance of amyloid or intermediates in the production of amyloid. Inhibitors of fibrillogenesis will lead to less fluorescence production. The results illustrated in Table 1 below, are based on the fluorescence production in the presence of test peptides at either 20 μM or 80 μM concentration, at the time intervals of 5, 19, 45, 67, 77 and 90 hours, compared to a control, buffer alone, without added inhibitory peptide. Protocol Aβ peptide: Aβ (1–40) 95% purity (American Peptide Company, Inc, Sunnyvale, Cal. USA, cat. 62-0-78) is disaggregated in trifluoroacetic acid and filtered through a […] filter, (Whatman Anotop 25 plus, 0.02 μm, Catalogue no. 6809 4102) in hexafluoroisopropanol (HFIP). Solutions of Aβ (1–40) at 600 μM in HFIP are stored at −80° C. Assay mixture: The mixture is prepared as two solutions that are combined upon addition to the 384 well microplate (Corning Costar cat. 3705). • i) Solution A consists of test peptides in 0.02M Tris/0.02M acetate/0.15M NaCl/0.01% azide at pH 7.40 or buffer alone (control), • ii) Solution B consists of Aβ(1–40) 40 μM, thioflavin T 20 μM in 0.02M Tris/0.02M acetate/0.15M NaCl at pH 7.40. This solution is prepared by drying the Aβ peptide under nitrogen and then resuspending this in 0.04M Tris base with 15 minutes sonication. An equal volume of 0.04M acetic acid containing 0.3 M NaCl is added and the solution is adjusted to pH 7.40±0.02. A small volume of 5 mM thioflavin T is added to the solution to give a final 20 μM concentration of thioflavin T. • iii) The microplate is loaded with 40 μL of solution A followed by 40 μL of solution B which gives a final 20 μM Aβ(1–40), 10 μM thioflavin T, and either 20 μM, 80 μM or 100 μM test compound in 0.02M Tris/0.02M acetate/0.15M NaCl/0.005% azide, pH 7.40. The plate is sealed and loaded into the microplate fluorescence reader. Fluorescence measurement data analysis: The HTS-7000 Bio Assay Reader, Perkin Elmer, is used to perform kinetic runs of about 5 days. Readings were taken at various time intervals, 5, 19, 45, 67, 77 and 90 hours, with one minute shaking before each reading. Bandpass filters used were: excitation 430 nm, emission […]. Calculations The rank order of efficacy of the peptides is determined by observing which peptides allow the appearance of fluorescence, above the background level, first. For example in the presence of buffer control alone, fluorescence appears earlier than when any of the peptides is present.

Aβ40 = biological target: T2, Aβ40 (Homo sapiens, UniProt P05067); assay: CD spectrum of Aβ40 incubated with peptide (β-sheet content); type: biochemical
T2 construct: when incubated with Aβ40 under physiological conditions
T2 sequence (P05067 672-711 limits assumed): as above
From the text: It is the understanding of the inventors that this interesting observation will lead to a greater understanding of fibrillogenesis of Aβ40 and Aβ42 peptides and as a result, will provide important information for the design of potent anti-fibrillogenic compounds for Aβ, other amyloidotic peptides such as AA, AL and IAPP for the treatment of diseases such as Alzheimer's, Type II Diabetes and amyloidosis related disorders. The same principle can also be applied to the design of peptide type compounds for the inhibition of binding of various chemokines to the cell surface as well as inhibition of self assembly and cellular adherence of prion proteins.

125I-LBMP1620 = settings: peptide synthesized by SPOT technique; cited from earlier work
[1] = test system: fetal rat primary cortical neurons; assay: propidium iodide assay on primary cortical neurons with Aβ; type: cell-based; settings: FIG. 7; compared to Congo red and Aβ alone; 3 days; listed as all-[D]-Lys-Leu-Val-Phe-Phe-Ala
Description: FIG. 7 uses the propidium iodide assay on primary cortical neurons. Briefly, fetal rat primary cortical neurons are isolated and cultured according to Durkin, J. P. et al., J. Neurochem., 66:951–962, 1996. Neurons are plated in a 48 well microplate. 7 days after plating the neuronal culture media is supplemented with B27 (Life Technologies, Data sheet form No. 3755). A mixture of Aβ and test peptide is added to the cortical neurons for 3 days at 37° C. and 5% CO2.
Cell viability is then visually assessed as the proportion of phase-bright cells that exclude propidium iodide, since only dead cells take up propidium iodide.

[2] = test system: SH-SY5Y human neuroblast cell line; assay: MTT cytoprotection assay, Aβ (1–40) toxicity on SH-SY5Y cells; type: cell-based; settings: FIG. 6, 100 μM test peptide, listed as all-[D]-Lys-Lys-Leu-Val-Phe-Phe-Ala
Description: FIG. 6 uses the MTT assay on SH-SY5Y cells.
A SH-SY5Y human neuroblast cell line (American Type Culture Collection, cat. CRL-2266) is cultured according to technical specifications. Monomerized Aβ (1–40) is prepared using trifluoroacetic acid and hexafluoroisopropanol, in the same way already described for the thioflavin T fluorescence assay. Monomerized Aβ at various concentrations in TANA buffer (0.02 M TRIS base pH 7.4, 0.02M acetate, 0.15 M NaCl) is added to 100 μM test peptide and the mixture is incubated for 24 hours at 37° C. with agitation, in order to allow polymerization to occur. Cells are adhered to a 96-well microplate for 2 hours at 37° C. and 5% CO2 before the Aβ-peptide mixture, or buffer alone (control), is added. The microplate is gently agitated and incubated for 20–24 hours at 37° C. and 5% CO2. Cell viability is determined by a MTT-based colorimetric assay. The MTT assay (Boehringer Mannheim, Cell Proliferation Kit 1) is based on the principle that the yellow tetrazolium salt MTT is cleaved in metabolically-active cells to produce purple formazan crystals. The formazan crystals are solubilized and the resulting colored solution is quantified using a scanning multiwell spectrophotometer (ELISA reader, Absorbance A560 nm). Cellular toxicity was calculated as follows: […]

Aβ = Aβ (Homo sapiens, UniProt P05067); assay: Aβ-NBD environmental probe fibrillogenesis assay; type: biochemical
Sequence of Aβ (P05067 672-711 limits assumed): as above

IAPP = biological target: T3, IAPP (Homo sapiens, UniProt P10997); assay: IAPP fibril formation (thioflavin T assay, circular dichroism, electron microscope); type: biochemical; settings: circular dichroism and thioflavin T assay
T3 sequence (P10997 34-70 limits assumed): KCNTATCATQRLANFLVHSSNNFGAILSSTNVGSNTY
From the text: Other amyloidogenic peptides such as IAPP, have also been tested.
The full-length IAPP is 37 amino acids and the β-sheet region is the 20–29 sequence. The 20–29 sequence is critical for forming β-sheet and has been previously shown to be a key region in modulating IAPP aggregation and folding.
Hexapeptides spanning the 20–29 region (Ser-Asn-Asn-Phe-Gly-Ala-Ile-Leu-Ser-Ser) of the IAPP protein were synthesized and tested for their ability to prevent fibril formation as determined by circular dichroism and the thioflavin T assay. […] These peptides (Ser-Asn-Asn-Phe-Gly-Ala- and Asn-Asn-Phe-Gly-Ala-Ile) were directed towards the central core of the 20–29 region.

| Substance | Order Of Potency of Peptide Inhibitors, Tested at 20 μM (Aβ(1–40)) | Order Of Potency of Peptide Inhibitors, Tested at 80 μM (Aβ(1–40)) | also measured |
| --- | --- | --- | --- |
| AFFVLK [reference compound] | 11 (L) AFFVLK | 11 (L) AFFVLK |  |
| Ala-Phe-Phe-Val-Leu-Lys [(D) AFFVLK] ([dA][dF][dF][dV][dL][dK]) | 5 (D) AFFVLK | 1 (D) AFFVLK |  |
| Asp-Asp-Asp (DDD; peptide having antifibrillogenic activity and/or neuroprotection) [tripeptide] |  |  | β-sheet content of Aβ40 by CD spectrum after 24 hours incubation (Aβ40; 24 hours): no trace of β-sheet conformation; β-sheet content of Aβ40 by CD spectrum at time t=0 (Aβ40; physiological conditions, t=0): slight decrease |
| KKLVFFA [reference compound] | 10 (L) KKLVFFA | 7 (L) KKLVFFA | concentration required to give an equivalent inhibition (Aβ(1–40)): 400 µM |
| Lys-Ala-Val-Phe-Phe-Ala ([dK][dA][dV][dF][dF][dA]) [(D) KAVFFA] | 7 (D) KAVFFA | 6 (D) KAVFFA |  |
| Lys-Ile-Val-Phe-Phe-Ala ([dK][dI][dV][dF][dF][dA]) [(D) KIVFFA] | 1 (D) KIVFFA | 5 (D) KIVFFA |  |
| Lys-Leu-Val-Phe ([dK][dL][dV][dF]) [(D) KLVF] | 6 (D) KLVF | 9 (D) KLVF |  |
| Lys-Leu-Val-Phe-Phe [(D) KLVFF] | 9 (D) KLVFF | 10 (D) KLVFF | 125I-LBMP1620 binding (125I-LBMP1620): failed to bind |
| Lys-Leu-Val-Phe-Phe-Ala [(D) KLVFFA] ([dK][dL][dV][dF][dF][dA]) | 3 (D) KLVFFA | 1 (D) KLVFFA | cytoprotective activity against Aβ [1]: potent cytoprotective agents; also recorded: potent cytoprotective activity; inhibition of [L]-Aβ (1–40) assembly/fibrillogenesis compared with the opposite stereoisomer (Aβ(1–40); listed as all [D]-Lys-Leu-Val-Phe-Phe-Ala): more potent inhibitor; inhibition of [L]-Aβ (1–40) assembly/fibrillogenesis compared with the opposite stereoisomer (Aβ(1–40); listed as all-[D]-Lys-Leu-Val-Phe-Phe-Ala): much more potent inhibitors |
| Lys-Lys-Leu-Val-Phe-Phe-Ala [(D) KKLVFFA] ([dK][dK][dL][dV][dF][dF][dA]) | 2 (D) KKLVFFA | 1 (D) KKLVFFA | inhibition of Aβ (1–40) neurotoxicity (cytoprotection) [2]: potent cytoprotective agents; also recorded: more potent inhibitor; inhibition of [L]-Aβ (1–40) assembly/fibrillogenesis compared with the opposite stereoisomer (Aβ(1–40)): much more potent inhibitors; concentration required to give an equivalent inhibition (Aβ(1–40); listed as all-[D] stereoisomer peptide): 6.1 µM; potency of all-[D] relative to all-[L] stereoisomer peptide (Aβ(1–40); from 400 μM all-[L] versus 6.1 μM all-[D]): about 60 times; potency at lowest concentration tested versus highest concentration of all-[L] peptide (Aβ; all-[D] 25 μM versus all-[L] 800 μM): more potent than the highest concentration of the all-[L] peptide; potency of all-[D] relative to all-[L] stereoisomer peptide (Aβ; estimate from 25 μM all-[D] versus 800 μM all-[L]): at least 30 times |
| Lys-Phe-Val-Phe-Phe-Ala ([dK][dF][dV][dF][dF][dA]) [(D) KFVFFA] | 4 (D) KFVFFA | 1 (D) KFVFFA |  |
| NNFGAI [hexapeptide from the 20–29 β-sheet region of IAPP] |  |  | blocking of IAPP fibril formation (IAPP): capable of blocking the formation of IAPP fibrils |
| SNNFGA [hexapeptide from the 20–29 β-sheet region of IAPP] |  |  | blocking of IAPP fibril formation (IAPP): capable of blocking the formation of IAPP fibrils |
